Source: US20110008436A1 (published 2011)
Where no end group is shown, it is not given here.

Key:
[1] = molecular target: T1, Substantially sericin-depleted silk fibroin from Bombyx mori (dissolved in 9.3 M LiBr, dialysed, then gelled … (Bombyx mori, UniProt P05790 22-5263; P21828 17-262, limits assumed); assay: HPLC of 23RGD extracted from lyophilised silk precipitate; AVHI formulation (high accelerant volume, calculated ratio 10.0)
T1 construct: also called silk molecule; depolymerized silk fibroin
Experimental: (§1) The amount of 23RGD bound to silk precipitates was quantified by analyzing lyophilized samples. The 23RGD was removed by incubating the samples for 4 hours in a dissolving buffer, then centrifuging on an Eppendorf 5415C (Eppendorf North America Inc., Westbury, N.Y.) at 16,000 g (RCF) for 30 minutes and the supernatant collected. This supernatant was then centrifuged in identical fashion and the final supernatant collected for HPLC analysis using a PerkinElmer Series 200 (PerkinElmer, Waltham, Mass.). The 23RGD peak areas from each curve were compared against a standard curve. 1-Way ANOVA was used to test for significant differences caused by changing silk concentration, 23RGD concentration, and accelerant volume. A Student's t-test was used to test the significance of differences resulting from altered ethanol concentrations.

[2] = molecular target: T1, Substantially sericin-depleted silk …; assay: HPLC of 23RGD extracted from lyophilised silk precipitate; SCLO formulation (low silk concentration, calculated ratio 6.7)
Experimental: as §1

[3] = molecular target: T1, Substantially sericin-depleted silk …; assay: Inferred by the filing from the HPLC ratios of the precipitates
Experimental: as §1

[4] = molecular target: T1, Substantially sericin-depleted silk …; assay: HPLC of 23RGD extracted from lyophilised silk precipitate; group called RLO in this sentence (0.49 mg/mL 23RGD per paragraph 318, which is RVLO in Table 10)
Experimental: as §1

[5] = molecular target: T1, Substantially sericin-depleted silk …; assay: HPLC of 23RGD extracted from lyophilised silk precipitate; SCVLO formulation (very low silk concentration, calculated ratio 10.0)
Experimental: as §1

[6] = molecular target: T1, Substantially sericin-depleted silk …; assay: HPLC of 23RGD extracted from silk precipitate; ECLO formulation (80% ethanol accelerant), against the calculated ratio
Experimental: as §1

[7] = molecular target: T1, Substantially sericin-depleted silk …; assay: HPLC of 23RGD extracted with dissolving buffer from the rinsed 23RGD-enhanced silk gel, against a 23RGD standard curve
Excerpt: 23RGD-infused gels were studied to quantify the amount of 23RGD bound to the silk-hydrogel device as well as the quantity of free 23RGD which might be rinsed free of the device under relevant conditions. Briefly, samples of 23RGD-infused gel were cast and rinsed according to the methods above, with samples of rinse buffer being collected from each rinse for subsequent analysis by HPLC. Additionally, subsequent to the last rinse, the gel samples were mechanically pulverized by means of a stainless steel stirring rod and the adsorbed 23RGD removed by incubation for 4 hours in a dissolving buffer. This mixture of gel and solvent was then centrifuged on an Eppendorf 5415C at 16,000 g RCF for 30 minutes. The supernatant was collected and centrifuged another 30 minutes at 16,000 g RCF after which time the supernatant was collected in a sample vial for HPLC analysis. Samples of rinse buffer from the first and last rinse were centrifuged in the same fashion after being diluted with the same solvent the gel was extracted with in a volumetric ratio of 1 part rinse buffer to 4 parts solvent. To ensure 23RGD-hydrogel device rinse-exposed surface area was not a limiting factor, the same rinse and extraction process was performed upon devices pulverized after gelation and before rinsing.

[8] = molecular target: T1, Substantially sericin-depleted silk …; assay: HPLC of 23RGD extracted from lyophilised silk precipitate; BASE formulation (calculated ratio 5.0)
Experimental: as §1

[9] = molecular target: T1, Substantially sericin-depleted silk …; assay: HPLC of 23RGD extracted from lyophilised silk precipitate; formulation labelled 0.6S 3R 10:1 (2.45 mg/mL 23RGD in 90% ethanol)
Experimental: as §1

[10] = molecular target: T1, Substantially sericin-depleted silk …; assay: HPLC of 23RGD extracted from lyophilised silk precipitate; group called RMED (1.47 mg/mL 23RGD per paragraph 318, which is RLO in Table 10)
Experimental: as §1

[11] = molecular target: T1, Substantially sericin-depleted silk …; assay: HPLC of 23RGD extracted from lyophilised silk precipitate; RHI formulation (high 23RGD, calculated ratio 10.0)
Experimental: as §1

[12] = molecular target: T1, Substantially sericin-depleted silk …; assay: HPLC of 23RGD extracted from lyophilised silk precipitate; AVLO formulation (low accelerant volume, calculated ratio 2.5)
Experimental: as §1

[13] = molecular target: T1, Substantially sericin-depleted silk …; assay: HPLC of 23RGD extracted from silk precipitate, against the calculated ratio
Experimental: as §1

GRGDIPASSKGGGGSRLLLLLLR-NH2 (also called 23RDG) [23RGD peptide (amphiphilic peptide GRGDIPASSKG4SRL6R-NH2)]
23RGD:silk molar ratio bound [1]: 10.5 mol 23RGD per mol silk | 23RGD:silk molar ratio bound [2]: 9.9 mol 23RGD per mol silk | apparent saturation, 23RGD:silk ratio [3]: ~10 mol 23RGD per mol silk | 23RGD:silk molar ratio bound [4]: 1.1 mol 23RGD per mol silk | 23RGD:silk molar ratio bound [5]: 11 mol 23RGD per mol silk | fold of the expected (calculated) bound 23RGD [6]: ~1.5 fold | 23RGD:silk molar ratio bound [7]: 3.35 mol 23RGD per mol silk | 23RGD:silk molar ratio bound [8]: 8.7 mol 23RGD per mol silk | 23RGD:silk molar ratio bound [9]: ~10 mol 23RGD per mol silk | 23RGD:silk molar ratio bound [10]: 6.95 mol 23RGD per mol silk | 23RGD:silk molar ratio bound [11]: 10.7 mol 23RGD per mol silk | 23RGD:silk molar ratio bound [12]: 5.2 mol 23RGD per mol silk | fold of the expected (calculated) bound 23RGD [13]: ~2 fold
